In patent US20250051467A1 (JIANGSU HENGRUI PHARMACEUTICALS, published 2025):

How the values were obtained:
[1] = molecular target: T1, human CD40 on cells (Raji cells; HEK-Blue CD40L cells; human dendritic cells) (human, UniProt P25942 21-277); assay: cell-based or functional assay
[2] = molecular target: T2, human CD40 with C-terminal Flag tag on HEK293 cells (human, UniProt P25942 21-277); assay: FACS, HEK293 cells transiently expressing human CD40
T2 construct: whole, on cells; also called HEK293 cells highly expressing CD40; cell strain highly expressing human CD40
T2 sequence (P25942 other isoform, or with tags, fused parts or gaps): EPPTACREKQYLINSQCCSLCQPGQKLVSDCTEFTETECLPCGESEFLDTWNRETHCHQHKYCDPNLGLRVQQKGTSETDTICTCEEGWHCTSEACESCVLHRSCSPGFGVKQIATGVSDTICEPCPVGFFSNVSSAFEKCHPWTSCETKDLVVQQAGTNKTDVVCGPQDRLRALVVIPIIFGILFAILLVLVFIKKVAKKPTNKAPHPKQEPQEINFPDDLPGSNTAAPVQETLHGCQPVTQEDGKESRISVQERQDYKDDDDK
Procedure: The ability of the humanized antibodies to bind to cells highly expressing the human antigen protein CD40 was measured by FACS. HEK293 cells were transiently transfected with CD40 plasmids (CD40 cDNA ORF Clone, Human, C-[…] (Flag®) Tag; Sino Biological; HG10774-CF), yielding HEK293 cells highly expressing CD40. The resulting cells were resuspended in the flow cytometry staining buffer ([…]), and the test antibodies that had been serially diluted to different concentrations were added. After 1 h of incubation on ice, the cells were washed with PBS and centrifuged at 400 g for 5 min. A goat anti-human Fc antibody labeled with the fluorescent group Alexa Fluor 647 was added as a secondary antibody, and the cells were stained in an ice bath for 1 h. After two washes with PBS, the fluorescent signals on the cell surface were detected by FACS. The humanized antibodies of the present disclosure all have relatively high affinities for the cell strain highly expressing CD40.

human FAP on CHO cells = molecular target: T3, human FAP on CHO cells (human, UniProt Q12884 1-760); assay: FACS, CHOK1 cells stably expressing human FAP
T3 construct: whole, on cells; also called CHO cell line overexpressing human FAP; CHOK1/FAP
Procedure: (§1) In this experiment, the binding of the anti-FAP/CD40 bispecific antibodies to stably transfected strains of CHOK1 cells that highly express human FAP, cynomolgus monkey FAP and mouse FAP was measured by FACS.

mouse FAP on CHOK1 cells = molecular target: T4, mouse FAP on CHOK1 cells (mouse, UniProt P97321 1-761); assay: FACS, CHOK1 cells stably expressing mouse FAP
T4 construct: whole, on cells; also called cell surface mouse FAP
T4 sequence (P97321 whole entry): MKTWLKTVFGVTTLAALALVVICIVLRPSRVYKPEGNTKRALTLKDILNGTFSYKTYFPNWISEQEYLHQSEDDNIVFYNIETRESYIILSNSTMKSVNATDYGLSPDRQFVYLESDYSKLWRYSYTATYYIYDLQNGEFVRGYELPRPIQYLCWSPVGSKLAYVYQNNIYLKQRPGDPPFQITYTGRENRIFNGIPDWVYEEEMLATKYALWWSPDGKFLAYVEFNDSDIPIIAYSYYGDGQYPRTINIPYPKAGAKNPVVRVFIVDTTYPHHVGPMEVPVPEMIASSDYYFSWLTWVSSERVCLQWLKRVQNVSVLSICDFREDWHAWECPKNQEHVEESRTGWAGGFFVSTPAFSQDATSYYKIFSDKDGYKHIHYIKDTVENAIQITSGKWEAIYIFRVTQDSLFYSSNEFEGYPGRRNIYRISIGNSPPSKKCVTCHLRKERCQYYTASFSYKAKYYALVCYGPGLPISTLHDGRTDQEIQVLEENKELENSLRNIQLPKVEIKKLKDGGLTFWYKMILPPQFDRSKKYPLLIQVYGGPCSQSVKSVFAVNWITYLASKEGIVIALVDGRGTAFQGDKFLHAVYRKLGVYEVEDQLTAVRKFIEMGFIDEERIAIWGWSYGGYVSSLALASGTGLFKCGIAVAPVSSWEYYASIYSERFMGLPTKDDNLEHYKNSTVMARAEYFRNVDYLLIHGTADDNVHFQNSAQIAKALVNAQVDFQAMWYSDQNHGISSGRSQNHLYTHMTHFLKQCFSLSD
Procedure: as §1

[3] = molecular target: T1, human CD40 on cells (Raji cells; …); assay: FACS, HEK-Blue CD40L cells expressing human CD40
Procedure: (§2) The binding of the bispecific antibodies to cell surface CD40 was measured by FACS, including HEK-Blue™CD40L cells highly expressing human CD40 (Invivogen, Cat #hkb-cd40), and HEK293 cells that were transiently transfected with cynomolgus monkey CD40 plasmids (Sino Biological, cat #CG90970-UT) and thus made to highly express cynomolgus monkey CD40. […] See FIGS. 9A, 9B and 11 and Table 21 for details.

[4] = molecular target: T5, cynomolgus monkey FAP on CHOK1 cells (cynomolgus monkey); assay: FACS, CHOK1 cells stably expressing cynomolgus monkey FAP
T5 construct: whole, on cells
Procedure: as §1

[5] = molecular target: T6, cynomolgus monkey CD40 on HEK293 cells (cynomolgus monkey, UniProt G7PG38 21-278); assay: FACS, HEK293 cells transiently expressing cynomolgus monkey CD40
T6 construct: whole, on cells
Procedure: as §2

[6] = molecular target: T7, human FAP protein (Acro, FAP-H5244) (human, UniProt Q12884 26-760); assay: SPR (Biacore 8K), antibody captured by anti-human IgG Fc, human FAP analyte
T7 construct: Bought protein
Procedure: (§3) The affinities of the anti-FAP/CD40 bispecific antibodies for their antigens, the human FAP protein (Acro, FAP-H5244) and the human CD40 protein (Acro, CD0-H5228), were measured by SPR (GE Healthcare; Biacore 8K). A CM5 sensor chip was used, and HBS-EP+buffer solution (10 mM HEPES, 150 mM NaCl, 3 mM EDTA, 0.05% surfactant P20) was used as the mobile phase. An anti-human IgG (Fc) antibody was immobilized by amino coupling. The test antibodies were separately diluted in HBS-EP+buffer solution as ligands and captured by the anti-human IgG (Fc) antibody on chip channels. Antigenic proteins of different species were used as analytes.

h-CD40-His = molecular target: T8, h-CD40-His (human, UniProt P25942 21-193); assay: SPR (Biacore 8K), antibody captured by anti-human IgG Fc, human CD40 analyte
T8 construct: range 21-193; Bought His-tagged recombinant protein; also called human CD40 protein (Acro, CD0-H5228); human CD40
T8 sequence (P25942 21-193 limits assumed): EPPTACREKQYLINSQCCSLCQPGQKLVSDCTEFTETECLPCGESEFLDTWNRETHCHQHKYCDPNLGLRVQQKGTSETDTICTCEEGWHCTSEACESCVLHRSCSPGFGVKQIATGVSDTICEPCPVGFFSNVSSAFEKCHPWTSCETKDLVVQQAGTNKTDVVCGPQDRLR
Procedure: as §3

T1 sequence (P25942 21-277): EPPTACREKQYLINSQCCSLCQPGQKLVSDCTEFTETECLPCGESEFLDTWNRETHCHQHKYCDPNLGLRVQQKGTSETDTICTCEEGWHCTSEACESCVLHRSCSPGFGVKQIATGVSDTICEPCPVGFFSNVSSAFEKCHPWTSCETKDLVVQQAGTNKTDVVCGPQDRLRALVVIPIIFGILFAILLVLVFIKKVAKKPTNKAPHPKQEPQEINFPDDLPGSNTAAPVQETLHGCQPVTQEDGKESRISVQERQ

FcγRIIb-mediated activation of HEK-Blue CD40L cells, EC50 [1] | FcγRIIb-mediated activation of HEK-Blue CD40L cells, Emax (relative fluorescence intensity) [1] | EC50 [2] | Emax (MFI) [2] | Binder | also measured
0.006 nM | 12.8 relative fluorescence intensity | 1.25 nM | 12800 MFI | A297V3-Fc (Fc fusion) EVQLVESGGGLVQPGGSLRLSCAASGFTFSRYGMKWVRQAPGKGLEWVSTINSHGDTTYYADSVKGRFTISRDNAKNSLYLQMNSLRAEDTAVYYCLRIDYSDYSSRGQGTLVTVSSEPKSADKTHTCPPCPAPELLGGPSVFLFPPKPKDTLMISRTPEVTCVVVDVEHEDPEVKFNWYVDGVEVHNAKTKPREEQYNSTYRVVSVLTVLHQDWLNGKEYKCKVSSKAFPAPIEKTISKAKGQPREPQVYTLPPSRDELTKNQVSLTCLVKGFYPSDIAVEWESNGQPENNYKTTPPVLDSDGSFFLYSKLTVDKSRWQQGNVFSCSVMHEALHNHYTQKSLSLSPGK | –
0.038 nM | 13.3 relative fluorescence intensity | 2.7 nM | 8260 MFI | A297V4-Fc (Fc fusion) EVQLVESGGGLVQPGGSLRLSCAASGFTFSRYGMKWVRQAPGKGLEWVSTINSHGDSTYYADSVKGRFTISRDNSKNTLYLQMNSLRAEDTAVYYCLKIDYSDYSSRGQGTLVTVSSEPKSADKTHTCPPCPAPELLGGPSVFLFPPKPKDTLMISRTPEVTCVVVDVEHEDPEVKFNWYVDGVEVHNAKTKPREEQYNSTYRVVSVLTVLHQDWLNGKEYKCKVSSKAFPAPIEKTISKAKGQPREPQVYTLPPSRDELTKNQVSLTCLVKGFYPSDIAVEWESNGQPENNYKTTPPVLDSDGSFFLYSKLTVDKSRWQQGNVFSCSVMHEALHNHYTQKSLSLSPGK | –
0.021 nM | 18.4 relative fluorescence intensity | 1.11 nM | 7300 MFI | A297V1-Fc (Fc fusion) QVQLVESGGGVVQPGGSLRLSCAASGFTFSRYGMKWVRQAPGKGLEWVSTINSHGDTTYYADSVKGRFTISRDNAKNSLYLQMNSLRAEDTALYYCARIDYSDYSSRGQGTMVTVSSEPKSADKTHTCPPCPAPELLGGPSVFLFPPKPKDTLMISRTPEVTCVVVDVEHEDPEVKFNWYVDGVEVHNAKTKPREEQYNSTYRVVSVLTVLHQDWLNGKEYKCKVSSKAFPAPIEKTISKAKGQPREPQVYTLPPSRDELTKNQVSLTCLVKGFYPSDIAVEWESNGQPENNYKTTPPVLDSDGSFFLYSKLTVDKSRWQQGNVFSCSVMHEALHNHYTQKSLSLSPGK | –
0.009 nM | 21.6 relative fluorescence intensity | 2.13 nM | 16600 MFI | A12V1-Fc (Fc fusion) EVQLVESGGGLVQPGGSLRLSCAASGFTFSNYGMKWVRQAPGKGLEWVSTILSQGGSTYYADSVKGRFTISRDNAKNSLYLQMNSLRAEDTALYYCARVDWSDYSPRGQGTMVTVSSEPKSADKTHTCPPCPAPELLGGPSVFLFPPKPKDTLMISRTPEVTCVVVDVEHEDPEVKFNWYVDGVEVHNAKTKPREEQYNSTYRVVSVLTVLHQDWLNGKEYKCKVSSKAFPAPIEKTISKAKGQPREPQVYTLPPSRDELTKNQVSLTCLVKGFYPSDIAVEWESNGQPENNYKTTPPVLDSDGSFFLYSKLTVDKSRWQQGNVFSCSVMHEALHNHYTQKSLSLSPGK | –
0.002 nM | 18.6 relative fluorescence intensity | 0.42 nM | 16600 MFI | A12V2-Fc (Fc fusion) EVQLVESGGGLVQPGGSLRLSCAASGFTFSNYGMKWVRQAPGKGLEWVSTILSQGGSTYYADSVKGRFTISRDNAKNSLYLQMNSLRAEDTALYYCLRVDWSDYSPRGQGTQVTVSSEPKSADKTHTCPPCPAPELLGGPSVFLFPPKPKDTLMISRTPEVTCVVVDVEHEDPEVKFNWYVDGVEVHNAKTKPREEQYNSTYRVVSVLTVLHQDWLNGKEYKCKVSSKAFPAPIEKTISKAKGQPREPQVYTLPPSRDELTKNQVSLTCLVKGFYPSDIAVEWESNGQPENNYKTTPPVLDSDGSFFLYSKLTVDKSRWQQGNVFSCSVMHEALHNHYTQKSLSLSPGK | –
0.005 nM | 20 relative fluorescence intensity | 1.07 nM | 12800 MFI | A297V2-Fc (Fc fusion) QVQLVESGGGVVQPGGSLRLSCAASGFTFSRYGMKWVRQAPGKGLEWVSTINSHGDTTYYADSVKGRFTISRDNAKNSLYLQMNSLRAEDTALYYCLRIDYSDYSSRGQGTMVTVSSEPKSADKTHTCPPCPAPELLGGPSVFLFPPKPKDTLMISRTPEVTCVVVDVEHEDPEVKFNWYVDGVEVHNAKTKPREEQYNSTYRVVSVLTVLHQDWLNGKEYKCKVSSKAFPAPIEKTISKAKGQPREPQVYTLPPSRDELTKNQVSLTCLVKGFYPSDIAVEWESNGQPENNYKTTPPVLDSDGSFFLYSKLTVDKSRWQQGNVFSCSVMHEALHNHYTQKSLSLSPGK | –
0.011 nM | 19.1 relative fluorescence intensity | 1.74 nM | 16900 MFI | A12V3-Fc (Fc fusion) EVQVVESGGGLVQPGGSLRLSCAASGFTFSNYGMKWVRQAPGKGLEWVSTILSQGGSTYYADSVKGRFTISRDNSKNTLYLQMNSLRAEDTAVYYCLRVDWSDYSPRGQGTQVTVSSEPKSADKTHTCPPCPAPELLGGPSVFLFPPKPKDTLMISRTPEVTCVVVDVEHEDPEVKFNWYVDGVEVHNAKTKPREEQYNSTYRVVSVLTVLHQDWLNGKEYKCKVSSKAFPAPIEKTISKAKGQPREPQVYTLPPSRDELTKNQVSLTCLVKGFYPSDIAVEWESNGQPENNYKTTPPVLDSDGSFFLYSKLTVDKSRWQQGNVFSCSVMHEALHNHYTQKSLSLSPGK | –
– | – | – | – | Ab10-A12V2-2 (bispecific antibody, human IgG1, kappa, L234A L235A, divalent for CD40) heavy: not shown light: DIQMTQSPSSVSASVGDRVTITCRASQGISSWLAWYQQKPGKAPKLLIYAASSLQSGVPSRFSGSGSGTDFTLTISSLQPEDFATYYCQQANSFPPAFGQGTKVEIKRTVAAPSVFIFPPSDEQLKSGTASVVCLLNNFYPREAKVQWKVDNALQSGNSQESVTEQDSKDSTYSLSSTLTLSKADYEKHKVYACEVTHQGLSSPVTKSFNRGEC | EC50 (human FAP on CHO cells): 2.72 nM; Emax (MFI) (human FAP on CHO cells): 74000 MFI; EC50 (mouse FAP on CHOK1 cells): 4.32 nM; Emax (MFI) (mouse FAP on CHOK1 cells): 19500 MFI; EC50 [3]: 2.4 nM; Emax (MFI) [3]: 7570 MFI; EC50 [4]: 5.65 nM; Emax (MFI) [4]: 45000 MFI; EC50 [5]: 2.76 nM; Emax (MFI) [5]: 6610 MFI
– | – | – | – | Ab10-A12V2-4 (bispecific antibody, human IgG1, kappa, L234A L235A, Ab10 IgG1 (L234A/L235A) with two A12V2 VHHs in tandem on each heavy chain C-terminus; tetravalent for CD40) heavy: not shown light: DIQMTQSPSSVSASVGDRVTITCRASQGISSWLAWYQQKPGKAPKLLIYAASSLQSGVPSRFSGSGSGTDFTLTISSLQPEDFATYYCQQANSFPPAFGQGTKVEIKRTVAAPSVFIFPPSDEQLKSGTASVVCLLNNFYPREAKVQWKVDNALQSGNSQESVTEQDSKDSTYSLSSTLTLSKADYEKHKVYACEVTHQGLSSPVTKSFNRGEC | EC50 (human FAP on CHO cells): 2.57 nM; Emax (MFI) (human FAP on CHO cells): 64900 MFI; EC50 (mouse FAP on CHOK1 cells): 4.43 nM; Emax (MFI) (mouse FAP on CHOK1 cells): 19000 MFI; EC50 [3]: 0.79 nM; Emax (MFI) [3]: 4640 MFI; EC50 [4]: 2.26 nM; Emax (MFI) [4]: 43200 MFI; EC50 [5]: 3.24 nM; Emax (MFI) [5]: 6540 MFI; Kd [6]: 0.294 nM; koff [6]: 5.14e-05 s⁻¹; kon [6]: 175000 M⁻¹ s⁻¹; Kd (h-CD40-His): 29 nM; koff (h-CD40-His): 0.002 s⁻¹; kon (h-CD40-His): 69000 M⁻¹ s⁻¹
